# What was measured:
# [1] = target: orphan G-protein coupled receptor G10d (human) (UniProt O15218); assay: cell-based or functional assay
# [2] = target: type I angiotensin II receptor (AT1), bovine (bovine) (UniProt P25104); assay: cell-based or functional assay
# type I angiotensin II receptor (AT1), bovine (bovine), sequence (P25104 whole entry): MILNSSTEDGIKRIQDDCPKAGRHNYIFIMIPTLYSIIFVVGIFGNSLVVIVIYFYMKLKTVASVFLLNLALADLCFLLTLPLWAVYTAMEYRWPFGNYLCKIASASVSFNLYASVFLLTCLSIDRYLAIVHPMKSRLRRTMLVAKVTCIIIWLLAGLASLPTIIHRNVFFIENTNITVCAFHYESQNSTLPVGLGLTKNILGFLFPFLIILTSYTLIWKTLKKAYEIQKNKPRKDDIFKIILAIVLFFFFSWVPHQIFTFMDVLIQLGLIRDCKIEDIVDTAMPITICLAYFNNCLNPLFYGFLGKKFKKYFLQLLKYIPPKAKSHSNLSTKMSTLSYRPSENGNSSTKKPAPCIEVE
# orphan G-protein coupled receptor G10d (human), sequence (O15218 whole entry): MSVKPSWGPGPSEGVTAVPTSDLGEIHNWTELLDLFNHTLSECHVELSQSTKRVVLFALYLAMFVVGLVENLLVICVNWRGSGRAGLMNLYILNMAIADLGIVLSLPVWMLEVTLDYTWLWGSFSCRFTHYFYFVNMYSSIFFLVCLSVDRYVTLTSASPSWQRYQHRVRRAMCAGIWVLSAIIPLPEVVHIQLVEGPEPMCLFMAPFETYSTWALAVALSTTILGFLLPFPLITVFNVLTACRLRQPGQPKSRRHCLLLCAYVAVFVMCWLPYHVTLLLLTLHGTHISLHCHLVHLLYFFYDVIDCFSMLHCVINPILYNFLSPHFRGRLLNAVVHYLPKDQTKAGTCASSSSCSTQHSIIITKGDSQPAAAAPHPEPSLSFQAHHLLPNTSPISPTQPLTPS
substance,measurement,setting,value
adrenocorticotropic hormone (ACTH) (from UniProt P01189 138-176) (peptide),"induction ratio of the reporter (Renilla reniformis luciferase, CRE), host GBCRC6 with pAGal9-G10d, 100 nmol/L of ACTH",[1],11 fold
human angiotensin II (manufactured by Bachem) (from UniProt P01019 25-476) (peptide),"firefly luciferase activity (CRE reporter), host GBCC13 with pAGal9-AT1, angiotensin II 100 nmol/L",[2],85 fold
α-melanocyte-stimulating hormone (α-MSH) (from UniProt P01189 138-150) (peptide),"induction ratio of the reporter (Renilla reniformis luciferase, CRE), host GBCRC6 with pAGal9-G10d, 100 µmol/L of α-MSH as printed",[1],10 fold

# From US20070105096A1
